Laboratory results: patent US20110027291A1, “METHODS, SYSTEMS AND PRODUCTS FOR PREDICTING RESPONSE OF TUMOR CELLS TO A THERAPEUTIC AGENT AND TREATING A PATIENT ACCORDING TO THE PREDICTED RESPONSE” (MERRIMACK PHARMACEUTICALS, INC., priority 2008, published 2011)
“Also recorded” adds a separate entry of the source.

Experiments:
[1] = molecular target: T1, ErbB3 (UniProt P21860 20-643, limits assumed); assay: Kinexa; same on-rate as 1.43e5 M^-1s^-1, converted to model units per well
T1 construct: Elsewhere it speaks of the ectodomain of human ErbB3; also called E3; HER3

[2] = molecular target: ErbB3 (Homo sapiens, UniProt P21860); assay: Ab #6 rate constants measured by Kinexa (inhibitor parameter values, Table 13); format: binding
[3] = system: SKOV3 xenograft tumor; assay: Xenograft study with Ab #6 (predicted set): SKOV3; format: in vivo, mice
Experimental: (§1) In the xenograft tumor models, mice (nu/nu mice: 3-4 week old female mice, T-cell deficient; outbred; Albino background; from Charles River Labs, Wilmington, Mass.) are implanted in the right flank with […] cells/mouse (depending on cell line) in 200 μl via subcutaneous injection. Mice are monitored for initial tumor growth. Tumor cells are allowed to grow for several days until the tumor volume is approximately 200 mm^3. The tumor volume is calculated as V=(π/6 (L×W^2). The mice are treated with the Ab #6 antibody at a dosage of 600 μg/injection every 3 days (qd3). Control mice are treated with phosphate buffered saline (PBS).
(§2) To test these model predictions, three additional in vivo xenograft studies were performed. The IGROV1, OVCAR8 and SKOV3 cell lines were used in xenograft studies conducted as described in Example 1, wherein mice were treated with 600 μg of Ab #6 every 3 days or with PBS as a control. The xenograft responses, as determined by changes in tumor volume (in mm^3) over time, are summarized in the graphs of FIGS. 9A-9C. Again, the Growth Rate Reduction (GRR) value for each cell line was calculated using the following formula:
(§3) Growth Rate Reduction=1−(Ab #6 Growth Rate)/(PBS Growth Rate)

[4] = system: ZR75-1 xenografts; assay: Nude mouse xenograft test of MM-121: ZR75-1; format: in vivo
From the text: (§4) FIG. 11 is a graph depicting the ability of an anti-ErbB3 antibody (Ab #6, MM-121) to inhibit proliferation of ACHN cells and cells of other cell lines. The center line of the three parallel diagonal lines represents the line computed to maximally separate MM-121 responders from non-responders. Predicted responder MDA-MB-231 was subsequently tested as nude mouse xenografts and was confirmed as a responder (i.e., growth of MDA-MB-231 as nude mouse xenografts was inhibited by MM-121 treatment). Other predicted responders would not grow adequately as xenografts and so could not be tested. Predicted non-responders ZR75-1 and HOP92 were subsequently tested as nude mouse xenografts and were confirmed as non-responders (i.e., growth of each as nude mouse xenografts was not inhibited by MM-121 treatment). Other predicted non-responders have not yet been tested experimentally.

[5] = system: ACHN xenograft tumor (renal cancer cell line); assay: Xenograft efficacy study with Ab #6: ACHN; format: in vivo, nu/nu mice
From the text: (§5) In this example, four xenograft tumor models were used to identify tumor cell lines that responded to treatment with the anti-ErbB3 antibody Ab #6. The four xenograft tumor models studied represent different indications: MALME3M (melanoma cancer line; ATCC No. HTB-64), ADRr (ovarian cancer cell line; NCI-60, cosmic sample ID No. 905987), ACHN (renal cancer cell line; ATCC No. CRL-1611) and DU145 (prostate cancer cell line; ATCC No. HTB-81).
as §1
(§6) Tumor volume is measured for 60-80 days.
(§7) As a measure of responsiveness of the tumor to Ab #6, the exponential growth rate is determined, which described the experimental data best. The following formula is used to describe the exponential growth. […]

[6] = system: HOP92 xenografts; assay: Nude mouse xenograft test of MM-121: HOP92; format: in vivo
From the text: as §4

[7] = system: OVCAR8 xenograft tumor; assay: Xenograft study with Ab #6 (predicted set): OVCAR8; format: in vivo, mice
Experimental: as §1, §2, §3

[8] = system: MDA-MB-231 xenografts; assay: Nude mouse xenograft test of MM-121: MDA-MB-231; format: in vivo
From the text: as §4

[9] = system: DU145 xenograft tumor (prostate cancer cell line); assay: Xenograft efficacy study with Ab #6: DU145; format: in vivo, nu/nu mice
From the text: as §5, §1, §6, §7

[10] = molecular target: T1, ErbB3; assay: Kinexa
[11] = system: BT474 xenograft tumor; assay: Xenograft study with Ab #6 (MM-121): BT474; format: in vivo, mice
From the text: In this example, the data obtained for the four cell lines examined in the xenograft studies described in Example 1 (ADRr, ACHN, DU154 and MALME3M) and four cell lines including the three examined in the xenograft studies described in Example 7 (IGROV 1, OVCAR8 and SKOV3), as well as a fourth, BT474, also examined in xenograft studies as described in Example 7, were further examined to determine whether direct biomarkers for Ab #6 (MM-121) responsiveness could be identified.
Next, it was examined whether the concentration of heregulin (HRG) in combination with one receptor concentration (e.g., ErbB1, ErbB3) effectively classified the xenograft data into responders and non-responders. As illustrated in the graph of FIG. 11 (in which the log of the concentration of HRG is plotted against the log of the concentration of ErbB1), these two concentration measurements, HRG and one of the ErbB receptors, were able to accurately classify the xenograft data into responders and non-responders. More specifically, the data for four non-responders BT474, MALME3, ADRr and IGROV1, were separable from the data for four responders, OVCAR8, SKOV3, ACHN, and DU154, thereby allowing for classification of non-responders versus responders. […] For this example, EGFR is measured by FACS and HRG is measured by RT-PCR. […]

[12] = system: ADRr xenograft tumor (ovarian cancer cell line); assay: Xenograft efficacy study with Ab #6: ADRr; format: in vivo, nu/nu mice
From the text: as §5, §1, §6, §7

[13] = system: IGROV1 xenograft tumor; assay: Xenograft study with Ab #6 (predicted set): IGROV1; format: in vivo, mice
Experimental: as §1, §2, §3

[14] = system: MALME3M xenograft tumor (melanoma cancer line); assay: Xenograft efficacy study with Ab #6: MALME3M; format: in vivo, nu/nu mice
From the text: as §5, §1, §6, §7

[15] = 600 μg of Ab #6 every 3 days vs PBS
[16] = Ab #6 600 μg/injection every 3 days vs PBS
[17] = Ab #6 600 μg/injection every 3 days vs PBS, negative GRR set to zero

B1: anti-ErbB3 monoclonal antibody Ab #6 (antibody, V domains shown)
VH: EVQLLESGGGLVQPGGSLRLSCAASGFTFSHYVMAWVRQAPGKGLEWVSSISSSGGWTLYADSVKGRFTISRDNSKNTLYLQMNSLRAEDTAVYYCTRGLKMATIFDYWGQGTLVTVSS
VL: QSALTQPASVSGSPGQSITISCTGTSSDVGSYNVVSWYQQHPGKAPKLIIYEVSQRPSGVSNRFSGSKSGNTASLTISGLQTEDEADYYCCSYAGSSIFVIFGGGTKVTVL
notes: also called MM-121
kon [1]: 143000 M⁻¹ s⁻¹
Ab #6 inhibitor binding to ErbB3 (on-rate before unit conversion) [2]: calculated as 1.43e5 M^−1s^−1/(Vmedia * Av/Num_cells).
kr Ab #6_1: Ab #6 inhibitor dissociation from ErbB3 [2]: 0.00011 s⁻¹
kr Ab #6_2: Ab #6 inhibitor dissociation from a second ErbB3 ([2]; 2 * krmm121_1): 0.00022 s⁻¹
kf Ab #6_1: Ab #6 inhibitor binding to ErbB3 ([2]; unit conversion from M^−1s^−1 /(Vmedia * Av/Num_cells), Num_cells = 30,000 per well): 7.15E−11 molecules^−1 sec^−1
experimentally observed responsiveness to Ab #6 based on GRR value [3]: responders
GRR (Tumor Growth Rate Reduction) [3, 15]: 19.6%
growth as nude mouse xenografts under MM-121 treatment [4]: not inhibited
GRR (Tumor Growth Rate Reduction) [5, 16]: 28.0%
effect of antibody treatment on tumor growth (in words) ([5]; vs PBS control): inhibited tumor growth; also recorded: mid-range responsiveness
growth as nude mouse xenografts under MM-121 treatment [6]: not inhibited
experimentally observed responsiveness to Ab #6 based on GRR value [7]: responders
GRR (Tumor Growth Rate Reduction) [7, 15]: 91.4%
growth as nude mouse xenografts under MM-121 treatment [8]: inhibited
GRR (Tumor Growth Rate Reduction) [9, 16]: 72.6%
effect of antibody treatment on tumor growth (in words) ([9]; vs PBS control): inhibited tumor growth; also recorded: highest responsiveness
koff [10]: 0.00011 s⁻¹
kon [10]: 143000 M⁻¹ s⁻¹
xenograft responsiveness (responder / non-responder) [11]: non-responders
GRR (Tumor Growth Rate Reduction) [12, 17]: 0%
effect of antibody treatment on tumor growth (in words) ([12]; vs PBS control): did not inhibit tumor growth; also recorded: no response
experimentally observed responsiveness to Ab #6 based on GRR value [13]: non-responder
GRR (Tumor Growth Rate Reduction) [13, 15]: 6.3%
GRR (Tumor Growth Rate Reduction) [14, 17]: 0%
effect of antibody treatment on tumor growth (in words) ([14]; vs PBS control): did not inhibit tumor growth; also recorded: no response
